# According to patent US20150065381A1:
# “And” between values parts separate entries of the source, which are not always exact repeats. Equal values may be shown once.
# How the values were obtained:
# [1] = target: HIV-1 envelope of gp160 clone B-Acute-009-c08 (HIV-1); test: capture ELISA, original data
# [2] = target: HIV-1 JRCSF envelope (HIV-1) (UniProt P20871); test: capture ELISA, plate 2, mAb 2.5 ug/ml
# [3] = target: HIV-1 envelope clone G-011.c02 (multiclade gp160 clone panel) (HIV-1); test: capture ELISA, plate 2, mAb 2.5 ug/ml
# [4] = target: HIV-1 envelope of gp160 clone B-Acute-008.c11 (HIV-1); test: capture ELISA, plate 2, mAb 2.5 ug/ml
# [5] = target: BG505 envelope (gp120 monomer released from lysed pseudovirus) (HIV-1); test: antigen capture ELISA, mAb 0.8 ug/ml, plate 1
# [6] = target: aMLV envelope (from lysed pseudovirus); test: antigen capture ELISA, mAb 0.8 ug/ml, plate 1
# [7] = target: BG505 envelope (gp120 monomer released from lysed pseudovirus) (HIV-1); test: antigen capture ELISA, mAb 2.5 ug/ml, plate 1
# [8] = target: aMLV envelope (from lysed pseudovirus); test: antigen capture ELISA, mAb 2.5 ug/ml, plate 1
# [9] = target: BG505 envelope (gp120 monomer released from lysed pseudovirus) (HIV-1); test: antigen capture ELISA, mAb 7.5 ug/ml, plate 2
# [10] = target: aMLV envelope (from lysed pseudovirus); test: antigen capture ELISA, mAb 7.5 ug/ml, plate 2
# [11] = target: 16055 envelope (gp120 monomer released from lysed pseudovirus) (HIV-1); test: antigen capture ELISA, mAb 0.3 ug/ml, plate 1
# [12] = target: JRFL envelope (gp120 monomer released from lysed pseudovirus) (HIV-1) (UniProt P20871); test: antigen capture ELISA, mAb 0.3 ug/ml, plate 1
# [13] = target: 16055 envelope (gp120 monomer released from lysed pseudovirus) (HIV-1); test: antigen capture ELISA, mAb 0.3 ug/ml, plate 2
# [14] = target: JRFL envelope (gp120 monomer released from lysed pseudovirus) (HIV-1) (UniProt P20871); test: antigen capture ELISA, mAb 0.3 ug/ml, plate 2
# [15] = target: 16055 envelope (gp120 monomer released from lysed pseudovirus) (HIV-1); test: antigen capture ELISA, mAb 0.8 ug/ml, plate 1
# [16] = target: JRFL envelope (gp120 monomer released from lysed pseudovirus) (HIV-1) (UniProt P20871); test: antigen capture ELISA, mAb 0.8 ug/ml, plate 1
# [17] = target: 16055 envelope (gp120 monomer released from lysed pseudovirus) (HIV-1); test: antigen capture ELISA, mAb 0.8 ug/ml, plate 2
# [18] = target: JRFL envelope (gp120 monomer released from lysed pseudovirus) (HIV-1) (UniProt P20871); test: antigen capture ELISA, mAb 0.8 ug/ml, plate 2
# [19] = target: 16055 envelope (gp120 monomer released from lysed pseudovirus) (HIV-1); test: antigen capture ELISA, mAb 2.5 ug/ml, plate 2
# [20] = target: JRFL envelope (gp120 monomer released from lysed pseudovirus) (HIV-1) (UniProt P20871); test: antigen capture ELISA, mAb 2.5 ug/ml, plate 2
# [21] = target: 16055 envelope (gp120 monomer released from lysed pseudovirus) (HIV-1); test: antigen capture ELISA, mAb 7.5 ug/ml, plate 2
# [22] = target: JRFL envelope (gp120 monomer released from lysed pseudovirus) (HIV-1) (UniProt P20871); test: antigen capture ELISA, mAb 7.5 ug/ml, plate 2
# [23] = target: 16055 envelope (gp120 monomer released from lysed pseudovirus) (HIV-1); test: antigen capture ELISA, mAb 2.5 ug/ml, plate 1
# [24] = target: JRFL envelope (gp120 monomer released from lysed pseudovirus) (HIV-1) (UniProt P20871); test: antigen capture ELISA, mAb 2.5 ug/ml, plate 1
# [25] = target: 16055 envelope (gp120 monomer released from lysed pseudovirus) (HIV-1); test: antigen capture ELISA, mAb 7.5 ug/ml, plate 1
# [26] = target: JRFL envelope (gp120 monomer released from lysed pseudovirus) (HIV-1) (UniProt P20871); test: antigen capture ELISA, mAb 7.5 ug/ml, plate 1
Substance,ELISA OD [1] [OD],ELISA OD [2],ELISA OD [3] [OD],ELISA OD [4] [OD],ELISA OD [5] [OD],ELISA OD [6],ELISA OD [7] [OD],ELISA OD [8],ELISA OD [9] [OD],ELISA OD [10],ELISA OD [11],ELISA OD [12],ELISA OD [13],ELISA OD [14],ELISA OD [15],ELISA OD [16],ELISA OD [17],ELISA OD [18],ELISA OD [19],ELISA OD [20],other results
PGT151 (antibody),0.264,0.078 OD and 0.068 OD,0.113,0.266,0.054,0.054 OD and 0.05 OD,0.063,0.068 OD and 0.053 OD,0.094,0.114 OD and 0.116 OD,–,–,–,–,–,–,–,–,–,–,–
PG9 (antibody),–,0.177 OD and 0.186 OD,0.052,0.168,0.261,0.091 OD and 0.06 OD,0.346,0.068 OD and 0.067 OD,0.428,0.079 OD and 0.071 OD,–,–,–,–,–,–,–,–,–,–,–
PGT145 (antibody),0.219,0.173 OD and 0.086 OD,0.07,0.103,0.066,0.056 OD and 0.073 OD,0.077,0.062 OD and 0.068 OD,0.104,0.108 OD and 0.079 OD,–,–,–,–,–,–,–,–,–,–,–
PG16 (antibody),–,0.172 OD and 0.21 OD,0.07,0.267,0.165,0.073 OD and 0.056 OD,0.103,0.063 OD and 0.072 OD,0.12,0.102 OD and 0.081 OD,0.101 OD and 0.122 OD,0.063 OD and 0.097 OD,0.107 OD and 0.112 OD,0.065 OD and 0.075 OD,0.129 OD and 0.11 OD,0.064 OD and 0.071 OD,0.156 OD and 0.105 OD,0.063 OD and 0.061 OD,0.195 OD and 0.122 OD,0.081 OD and 0.096 OD,ELISA OD [21]: 0.155 OD and 0.143 OD; ELISA OD [22]: 0.111 OD and 0.136 OD
PGV04 (antibody),–,1.87 OD and 2.17 OD,0.712,0.078,0.745,0.053 OD and 0.117 OD,1.04,0.056 OD and 0.073 OD,1.37,0.123 OD,0.054 OD and 0.065 OD,0.344 OD and 0.34 OD,0.079 OD and 0.122 OD,0.395 OD and 0.44 OD,0.055 OD and 0.059 OD,0.673 OD and 0.722 OD,0.073 OD and 0.071 OD,0.796 OD and 0.763 OD,0.126 OD and 0.095 OD,1.55 OD and 1.51 OD,ELISA OD [23]: 0.066 OD and 0.071 OD; ELISA OD [24]: 1.17 OD and 1.25 OD; ELISA OD [25]: 0.071 OD and 0.068 OD; ELISA OD [26]: 1.94 OD and 1.84 OD; ELISA OD [21]: 0.108 OD and 0.113 OD; ELISA OD [22]: 2.49 OD and 2.36 OD
